Reference: US20110212853

Target: recombinant human MCP-1 N1pE (human MCP-1 with an N-terminal pyroglutamate)

B1: recombinant human dipeptidyl peptidase 4 (protein)
chain: NKGTDDATADSRKTYTLTDYLKNTYRLKLYSLRWISDHEYLYKQENNILVFNAEYGNSSVFLENSTFDEFGHSINDYSISPDGQFILLEYNYVKQWRHSYTASYDIYDLNKRQLITEERIPNNTQWVTWSPVGHKLAYVWNNDIYVKIEPNLPSYRITWTGKEDIIYNGITDWVYEEEVFSAYSALWWSPNGTFLAYAQFNDTEVPLIEYSFYSDESLQYPKTVRVPYPKAGAVNPTVKFFVVNTDSLSSVTNATSIQITAPASMLIGDHYLCDVTWATQERISLQWLRRIQNYSVMDICDYDESSGRWNCLVARQHIEMSTTGWVGRFRPSEPHFTLDGNSFYKIISNEEGYRHICYFQIDKKDCTFITKGTWEVIGIEALTSDYLYYISNEYKGMPGGRNLYKIQLSDYTKVTCLSCELNPERCQYYSVSFSKEAKYYQLRCSGPGLPLYTLHSSVNDKGLRVLEDNSALDKMLQNVQMPSKKLDFIILNETKFWYQMILPPHFDKSKKYPLLLDVYAGPCSQKADTVFRLNWATYLASTENIIVASFDGRGSGYQGDKIMHAINRRLGTFEVEDQIEAARQFSKMGFVDNKRIAIWGWSYGGYVTSMVLGSGSGVFKCGIAVAPVSRWEYYDSVYTERYMGLPTPEDNLDHYRNSTVMSRAENFKQVEYLLIHGTADDNVHFQQSAQISKALVDVGVDFQAMWYTDEDHGIASSTAHQHIYTHMSHFIKQCFSLP
  N-terminal cleavage, Maldi-TOF mass spectrometry: MCP-1 is protected by a N-terminal pGlu-residue, which confers resistance against N-terminal cleavage by aminopeptidases, e.g. DP4
